Measured values published in patent US20250230247A1 (DREN BIO, published 2025).

T1: human Dectin-1 (biosensor tests of Tables 3, 4A and 9; construct not stated) (human, UniProt Q9BXN2 66-247, limits assumed)
T1 construct: also called hDectin-1
T1 sequence (looked up): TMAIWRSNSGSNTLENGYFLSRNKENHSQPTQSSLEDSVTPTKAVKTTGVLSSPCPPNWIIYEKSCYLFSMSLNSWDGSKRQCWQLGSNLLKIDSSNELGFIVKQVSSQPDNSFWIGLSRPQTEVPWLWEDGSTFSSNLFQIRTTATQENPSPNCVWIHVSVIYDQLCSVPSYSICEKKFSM


Key:
[1] = molecular target: T1, human Dectin-1 (biosensor tests of …); assay: Octet
Procedure: Variant binding domains were generated, and binding affinity to human Dectin-1 was measured by biosensor (Octet). Single point off rate fits (k off) were determined for each clone and compared to the parental clone (delta), as shown in FIG. 71.

[2] = molecular target: T1, human Dectin-1 (biosensor tests of …); assay: Octet response; on X = 340: time not given here; on X = 470: time not given here
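Wherever delta is given: Single-point dissociation rate (koff) fit for each variant binding domain, expressed as change versus the parental clone.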

Binder	delta [1] [%]	X = 340 [2]	X = 470 [2]	X = 290 [2]	X = 350 [2]
2M24A.1.1 hFab (Fab, V domains shown, Fab; also called 2M24.1.1) VH: QVQLVQSGAEVKKPGASVKVSCKSSGYTFTAYYIHWVRQAPGQGLEWMGWINPNSGDTNYAQKFQGRITMTRDTSISTAYLELSRLRSDDTAVFYCARNSGSYSFGYWGQGTLVTVSS VL: DIQMTQSPSSVSASVGDRVTITCRASQGISSWLAWYQQKPGKAPKLLIFGASSLQSGVPSRFSGSGSGTDFTLTVSSLQPEDFATYYCQQAASFPFTFGPGTKVDIE	98	0.305	0.006		
2M24A.1.2 hFab (Fab, V domains shown, Fab; also called 2M24.1.2) VH: QVQLVQSGAEVKKPGASVKVSCKSSGYTFTDYYIHWVRQAPGQGLEWMGWINPNSGATNYAQKFQGRITMTRDTSISTAYLELSRLRSDDTAVFYCARNSGSYSFGYWGQGTLVTVSS VL: DIQMTQSPSSVSASVGDRVTITCRASQGISSWLAWYQQKPGKAPKLLIFGASSLQSGVPSRFSGSGSGTDFTLTVSSLQPEDFATYYCQQAASFPFTFGPGTKVDIE	98	0.331	0.006		
2M24A.1.3 hFab (Fab, V domains shown, Fab; also called 2M24.1.3) VH: QVQLVQSGAEVKKPGASVKVSCKSSGYTFTDYYIHWVRQAPGQGLEWMGWINPNSGDTNYAQKFQGRITMTRDTSISTAYLELSRLRSDDTAVFYCARASGSYSFGYWGQGTLVTVSS VL: DIQMTQSPSSVSASVGDRVTITCRASQGISSWLAWYQQKPGKAPKLLIFGASSLQSGVPSRFSGSGSGTDFTLTVSSLQPEDFATYYCQQAASFPFTFGPGTKVDIE		0	0		
2M24A.1.4 hFab (Fab, V domains shown, Fab; also called 2M24.1.4) VH: QVQLVQSGAEVKKPGASVKVSCKSSGYTFTDYYIHWVRQAPGQGLEWMGWINPNSGDTNYAQKFQGRITMTRDTSISTAYLELSRLRSDDTAVFYCARNSGSASFGYWGQGTLVTVSS VL: DIQMTQSPSSVSASVGDRVTITCRASQGISSWLAWYQQKPGKAPKLLIFGASSLQSGVPSRFSGSGSGTDFTLTVSSLQPEDFATYYCQQAASFPFTFGPGTKVDIE		0	0		
2M24A.1.5 hFab (Fab, V domains shown, Fab; also called 2M24.1.5) VH: QVQLVQSGAEVKKPGASVKVSCKSSGYTFTDYYIHWVRQAPGQGLEWMGWINPNSGDTNYAQKFQGRITMTRDTSISTAYLELSRLRSDDTAVFYCARNSGSYSFGYWGQGTLVTVSS VL: DIQMTQSPSSVSASVGDRVTITCRASQGISSWLAWYQQKPGKAPKLLIFGASSLQSGVPSRFSGSGSGTDFTLTVSSLQPEDFATYYCQQAASFPFTFGPGTKVDIE	95	0.3	0.014		
2M24A.1.6 hFab (Fab, V domains shown, Fab; also called 2M24.1.6) VH: QVQLVQSGAEVKKPGASVKVSCKSSGYTFTAYYIHWVRQAPGQGLEWMGWINPNSGDTNYAQKFQGRITMTRDTSISTAYLELSRLRSDDTAVFYCARNSGSYSFGYWGQGTLVTVSS VL: DIQMTQSPSSVSASVGDRVTITCRASQGISSWLAWYQQKPGKAPKLLIFGASSLQSGVPSRFSGSGSGTDFTLTVSSLQPEDFATYYCQQAFSFPFTFGPGTKVDIE	21	0.493	0.39		
2M24A.1.7 hFab (Fab, V domains shown, Fab; also called 2M24.1.7) VH: QVQLVQSGAEVKKPGASVKVSCKSSGYTFTDYYIHWVRQAPGQGLEWMGWINPNSGATNYAQKFQGRITMTRDTSISTAYLELSRLRSDDTAVFYCARNSGSYSFGYWGQGTLVTVSS VL: DIQMTQSPSSVSASVGDRVTITCRASQGISSWLAWYQQKPGKAPKLLIFGASSLQSGVPSRFSGSGSGTDFTLTVSSLQPEDFATYYCQQAFSFPFTFGPGTKVDIE	22	0.51	0.398		
2M24A.1.8 hFab (Fab, V domains shown, Fab; also called 2M24.1.8) VH: QVQLVQSGAEVKKPGASVKVSCKSSGYTFTDYYIHWVRQAPGQGLEWMGWINPNSGDTNYAQKFQGRITMTRDTSISTAYLELSRLRSDDTAVFYCARASGSYSFGYWGQGTLVTVSS VL: DIQMTQSPSSVSASVGDRVTITCRASQGISSWLAWYQQKPGKAPKLLIFGASSLQSGVPSRFSGSGSGTDFTLTVSSLQPEDFATYYCQQAFSFPFTFGPGTKVDIE	100	0.042	0		
2M24A.1.10 hFab (Fab, V domains shown, Fab; also called 2M24.1.10) VH: QVQLVQSGAEVKKPGASVKVSCKSSGYTFTDYYIHWVRQAPGQGLEWMGWINPNSGDTNYAQKFQGRITMTRDTSISTAYLELSRLRSDDTAVFYCARNSGSYSFGYWGQGTLVTVSS VL: DIQMTQSPSSVSASVGDRVTITCRASQGISSWLAWYQQKPGKAPKLLIFGASSLQSGVPSRFSGSGSGTDFTLTVSSLQPEDFATYYCQQAFSFPFTFGPGTKVDIE	18	0.49	0.402		
2M24A.1.11 hFab (Fab, V domains shown, Fab; also called 2M24.1.11) VH: QVQLVQSGAEVKKPGASVKVSCKSSGYTFTAYYIHWVRQAPGQGLEWMGWINPNSGDTNYAQKFQGRITMTRDTSISTAYLELSRLRSDDTAVFYCARNSGSYSFGYWGQGTLVTVSS VL: DIQMTQSPSSVSASVGDRVTITCRASQGISSWLAWYQQKPGKAPKLLIFGASSLQSGVPSRFSGSGSGTDFTLTVSSLQPEDFATYYCQQAYSFPFTFGPGTKVDIE	16	0.499	0.418		
2M24A.1.12 hFab (Fab, V domains shown, Fab; also called 2M24.1.12) VH: QVQLVQSGAEVKKPGASVKVSCKSSGYTFTDYYIHWVRQAPGQGLEWMGWINPNSGATNYAQKFQGRITMTRDTSISTAYLELSRLRSDDTAVFYCARNSGSYSFGYWGQGTLVTVSS VL: DIQMTQSPSSVSASVGDRVTITCRASQGISSWLAWYQQKPGKAPKLLIFGASSLQSGVPSRFSGSGSGTDFTLTVSSLQPEDFATYYCQQAYSFPFTFGPGTKVDIE	19	0.49	0.399		
2M24A.1.13 hFab (Fab, V domains shown, Fab; also called 2M24.1.13) VH: QVQLVQSGAEVKKPGASVKVSCKSSGYTFTDYYIHWVRQAPGQGLEWMGWINPNSGDTNYAQKFQGRITMTRDTSISTAYLELSRLRSDDTAVFYCARASGSYSFGYWGQGTLVTVSS VL: DIQMTQSPSSVSASVGDRVTITCRASQGISSWLAWYQQKPGKAPKLLIFGASSLQSGVPSRFSGSGSGTDFTLTVSSLQPEDFATYYCQQAYSFPFTFGPGTKVDIE	100	0.028	0		
2M24A.1.16 (Fab, V domains shown, Fab; also called 2M24.1.16) VH: QVQLVQSGAEVKKPGASVKVSCKSSGYTFTDYYIHWVRQAPGQGLEWMGWINPNSGDTNYAQKFQGRITMTRDTSISTAYLELSRLRSDDTAVFYCARNAGSYSFGYWGQGTLVTVSS VL: DIQMTQSPSSVSASVGDRVTITCRASQGISSWLAWYQQKPGKAPKLLIFGASSLQSGVPSRFSGSGSGTDFTLTVSSLQPEDFATYYCQQAYSFPFTFGPGTKVDIE	5			0.12	0.114
2M24A.1.17 (Fab, V domains shown, Fab; also called 2M24.1.17) VH: QVQLVQSGAEVKKPGASVKVSCKSSGYTFTDYYIHWVRQAPGQGLEWMGWINPNSGDTNYAQKFQGRITMTRDTSISTAYLELSRLRSDDTAVFYCARNSASYSFGYWGQGTLVTVSS VL: DIQMTQSPSSVSASVGDRVTITCRASQGISSWLAWYQQKPGKAPKLLIFGASSLQSGVPSRFSGSGSGTDFTLTVSSLQPEDFATYYCQQAYSFPFTFGPGTKVDIE	1			0.131	0.129
2M24A.1.18 (Fab, V domains shown, Fab; also called 2M24.1.18) VH: QVQLVQSGAEVKKPGASVKVSCKSSGYTFTDYYIHWVRQAPGQGLEWMGWINPNSGDTNYAQKFQGRITMTRDTSISTAYLELSRLRSDDTAVFYCARNSGAYSFGYWGQGTLVTVSS VL: DIQMTQSPSSVSASVGDRVTITCRASQGISSWLAWYQQKPGKAPKLLIFGASSLQSGVPSRFSGSGSGTDFTLTVSSLQPEDFATYYCQQAYSFPFTFGPGTKVDIE	9			0.138	0.124
2M24A.1.19 (Fab, V domains shown, Fab; also called 2M24.1.19) VH: QVQLVQSGAEVKKPGASVKVSCKSSGYTFTDYYIHWVRQAPGQGLEWMGWINPNSGDTNYAQKFQGRITMTRDTSISTAYLELSRLRSDDTAVFYCARNSGSYAFGYWGQGTLVTVSS VL: DIQMTQSPSSVSASVGDRVTITCRASQGISSWLAWYQQKPGKAPKLLIFGASSLQSGVPSRFSGSGSGTDFTLTVSSLQPEDFATYYCQQAYSFPFTFGPGTKVDIE	22			0.126	0.0983
2M24A.1.20 (Fab, V domains shown, Fab; also called 2M24.1.20) VH: QVQLVQSGAEVKKPGASVKVSCKSSGYTFTDYYIHWVRQAPGQGLEWMGWINPNSGDTNYAQKFQGRITMTRDTSISTAYLELSRLRSDDTAVFYCARNSGSYSAGYWGQGTLVTVSS VL: DIQMTQSPSSVSASVGDRVTITCRASQGISSWLAWYQQKPGKAPKLLIFGASSLQSGVPSRFSGSGSGTDFTLTVSSLQPEDFATYYCQQAYSFPFTFGPGTKVDIE	78			0.0981	0.0215
2M24A.1.21 (Fab, V domains shown, Fab; also called 2M24.1.21) VH: QVQLVQSGAEVKKPGASVKVSCKSSGYTFTDYYIHWVRQAPGQGLEWMGWINPNSGDTNYAQKFQGRITMTRDTSISTAYLELSRLRSDDTAVFYCARNSGSYSFAYWGQGTLVTVSS VL: DIQMTQSPSSVSASVGDRVTITCRASQGISSWLAWYQQKPGKAPKLLIFGASSLQSGVPSRFSGSGSGTDFTLTVSSLQPEDFATYYCQQAYSFPFTFGPGTKVDIE	8			0.125	0.114
2M24A.1.22 (Fab, V domains shown, Fab; also called 2M24.1.22) VH: QVQLVQSGAEVKKPGASVKVSCKSSGYTFTDYYIHWVRQAPGQGLEWMGWINPNSGDTNYAQKFQGRITMTRDTSISTAYLELSRLRSDDTAVFYCARNSGSYSFGAWGQGTLVTVSS VL: DIQMTQSPSSVSASVGDRVTITCRASQGISSWLAWYQQKPGKAPKLLIFGASSLQSGVPSRFSGSGSGTDFTLTVSSLQPEDFATYYCQQAYSFPFTFGPGTKVDIE	15			0.131	0.112
